Reference: article PMC5751438 (Cell, 2017)

T1: SBP-tagged Ufd1/Npl4 heterodimer (SBP tag on Ufd1) (S. cerevisiae, UniProt P53044 1-361; P33755 1-580)
T1 sequence (looked up) 1: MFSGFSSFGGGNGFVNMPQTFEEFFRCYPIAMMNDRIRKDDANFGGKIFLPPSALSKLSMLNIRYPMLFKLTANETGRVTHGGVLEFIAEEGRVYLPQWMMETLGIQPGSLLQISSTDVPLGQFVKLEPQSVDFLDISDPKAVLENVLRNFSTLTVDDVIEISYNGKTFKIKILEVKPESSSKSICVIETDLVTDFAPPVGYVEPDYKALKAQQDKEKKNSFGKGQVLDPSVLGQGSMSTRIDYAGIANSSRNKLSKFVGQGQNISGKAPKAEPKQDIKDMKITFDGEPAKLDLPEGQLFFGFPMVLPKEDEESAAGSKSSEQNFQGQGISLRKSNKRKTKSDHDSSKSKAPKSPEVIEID
T1 sequence (looked up) 2: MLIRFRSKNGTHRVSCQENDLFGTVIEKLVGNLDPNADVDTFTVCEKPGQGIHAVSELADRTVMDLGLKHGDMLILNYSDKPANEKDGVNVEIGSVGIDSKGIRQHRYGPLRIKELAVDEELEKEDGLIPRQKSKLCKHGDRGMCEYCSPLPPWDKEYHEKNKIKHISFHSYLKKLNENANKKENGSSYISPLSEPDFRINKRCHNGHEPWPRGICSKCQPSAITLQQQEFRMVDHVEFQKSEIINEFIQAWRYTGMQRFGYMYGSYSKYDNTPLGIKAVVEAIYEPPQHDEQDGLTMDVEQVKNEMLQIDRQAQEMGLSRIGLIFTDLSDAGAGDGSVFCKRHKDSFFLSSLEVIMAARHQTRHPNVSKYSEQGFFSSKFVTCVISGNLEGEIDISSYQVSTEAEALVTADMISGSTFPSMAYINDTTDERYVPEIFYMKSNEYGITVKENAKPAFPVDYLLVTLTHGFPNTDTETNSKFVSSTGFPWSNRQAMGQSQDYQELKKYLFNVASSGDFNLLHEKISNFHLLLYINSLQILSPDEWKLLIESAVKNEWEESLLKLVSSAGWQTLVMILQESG

B1: Cdc48 ATPase (wild type, untagged) (enzyme, S. cerevisiae, UniProt P25694 1-835, looked up)
chain: MGEEHKPLLDASGVDPREEDKTATAILRRKKKDNMLLVDDAINDDNSVIAINSNTMDKLELFRGDTVLVKGKKRKDTVLIVLIDDELEDGACRINRVVRNNLRIRLGDLVTIHPCPDIKYATRISVLPIADTIEGITGNLFDVFLKPYFVEAYRPVRKGDHFVVRGGMRQVEFKVVDVEPEEYAVVAQDTIIHWEGEPINREDEENNMNEVGYDDIGGCRKQMAQIREMVELPLRHPQLFKAIGIKPPRGVLMYGPPGTGKTLMARAVANETGAFFFLINGPEVMSKMAGESESNLRKAFEEAEKNAPAIIFIDEIDSIAPKRDKTNGEVERRVVSQLLTLMDGMKARSNVVVIAATNRPNSIDPALRRFGRFDREVDIGIPDATGRLEVLRIHTKNMKLADDVDLEALAAETHGYVGADIASLCSEAAMQQIREKMDLIDLDEDEIDAEVLDSLGVTMDNFRFALGNSNPSALRETVVESVNVTWDDVGGLDEIKEELKETVEYPVLHPDQYTKFGLSPSKGVLFYGPPGTGKTLLAKAVATEVSANFISVKGPELLSMWYGESESNIRDIFDKARAAAPTVVFLDELDSIAKARGGSLGDAGGASDRVVNQLLTEMDGMNAKKNVFVIGATNRPDQIDPAILRPGRLDQLIYVPLPDENARLSILNAQLRKTPLEPGLELTAIAKATQGFSGADLLYIVQRAAKYAIKDSIEAHRQHEAEKEVKVEGEDVEMTDEGAKAEQEPEVDPVPYITKEHFAEAMKTAKRSVSDAELRRYEAYSQQMKASRGQFSNFNFNDAPLGTTATDNANSNNSAPSGAGAAFGSNAEEDDDLYS
B2: Otu1 (wild type) (enzyme, UniProt P43558 1-301, looked up)
chain: MKLKVTGAGINQVVTLKQDATLNDLIEHINVDVKTMRFGYPPQRINLQGEDASLGQTQLDELGINSGEKITIESSDSNESFSLPPPQPKPKRVLKSTEMSIGGSGENVLSVHPVLDDNSCLFHAIAYGIFKQDSVRDLREMVSKEVLNNPVKFNDAILDKPNKDYAQWILKMESWGGAIEIGIISDALAVAIYVVDIDAVKIEKFNEDKFDNYILILFNGIHYDSLTMNEFKTVFNKNQPESDDVLTAALQLASNLKQTGYSFNTHKAQIKCNTCQMTFVGEREVARHAESTGHVDFGQNR

Assays:
[1] = biological target: T1, SBP-tagged Ufd1/Npl4 heterodimer (SBP …); test: pull-down
[2] = biological target: B1; test: pull-down

binding result [1]	binding result [2]	Binder
binds	–	B1
–	binds	B2
